In one data set the target is FAAP24 HhH V162A V162A (UniProt Q9BTP7). The experiment in a line: EMSA. The following applies: EMSA: 10 mM Tris pH 7.0, 10 mM NaCl (high salt: 50 mM NaHPO4, 400 mM NaCl), 5% glycerol, 1 mM DTT, 20 ug/ml BSA, on ice, gel at 4 C; NMR: 50 mM NaHPO4 pH 6.5 …. Background: Mobility shift assays separate free from complexed probe on a gel.
For data set [1], the target named is T1, FAAP24 HhH domain (UniProt Q9BTP7 139-215).
T1 sequence: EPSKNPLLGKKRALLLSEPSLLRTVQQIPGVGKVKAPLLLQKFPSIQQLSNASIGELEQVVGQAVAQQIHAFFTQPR
Put plainly: EMSA; 10 mM NaCl; apparent Kd; EMSA: 10 mM Tris pH 7.0, 10 mM NaCl (high salt: 50 mM NaHPO4, 400 mM NaCl), 5% glycerol, 1 mM DTT, 20 ug/ml BSA, on ice, gel at 4 C; NMR: 50 mM NaHPO4 pH 6.5, 100 mM NaCl, 8% D2O, 298 K. The settings on record: protein: recombinant, tags: N-terminal His, label: radiolabeled.

The target in data set [2] is T1, FAAP24 HhH domain. The experiment in a line: NMR; 100 mM NaCl; EMSA: 10 mM Tris pH 7.0, 10 mM NaCl (high salt: 50 mM NaHPO4, 400 mM NaCl), 5% glycerol, 1 mM DTT, 20 ug/ml BSA, on ice, gel at 4 C; NMR: 50 mM NaHPO4 pH 6.5, 100 mM NaCl, 8% D2O, 298 K. The settings on record: protein: recombinant; tags: N-terminal His; fork: 10 bp, two 20 nt arms.
For data set [3], the target named is T1, FAAP24 HhH domain. Put plainly: NMR; 100 mM NaCl; CSPs in N-terminal linker; EMSA: 10 mM Tris pH 7.0, 10 mM NaCl (high salt: 50 mM NaHPO4, 400 mM NaCl), 5% glycerol, 1 mM DTT, 20 ug/ml BSA, on ice, gel at 4 C; NMR: 50 mM NaHPO4 pH 6.5, 100 mM NaCl, 8% D2O, 298 K. The following applies: protein: recombinant; tags: N-terminal His; single strand.
Data set [4] has as its target T1, FAAP24 HhH domain. The experiment in a line: NMR; 100 mM NaCl; CSPs comparable with splayed arm; EMSA: 10 mM Tris pH 7.0, 10 mM NaCl (high salt: 50 mM NaHPO4, 400 mM NaCl), 5% glycerol, 1 mM DTT, 20 ug/ml BSA, on ice, gel at 4 C; NMR: 50 mM NaHPO4 pH 6.5, 100 mM NaCl, 8% D2O, 298 K. The following applies: protein: recombinant; tags: N-terminal His; 5' overhang 20 nt.

For the next data set, the target named is T2, FAAP24 HhH Q205A/Q206A (UniProt Q9BTP7 139-215, Q205A;Q206A).
T2 sequence: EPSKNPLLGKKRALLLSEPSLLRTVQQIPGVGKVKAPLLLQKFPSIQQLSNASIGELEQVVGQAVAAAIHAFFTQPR
Put plainly: EMSA; no significant effect on affinity vs wt; EMSA: 10 mM Tris pH 7.0, 10 mM NaCl (high salt: 50 mM NaHPO4, 400 mM NaCl), 5% glycerol, 1 mM DTT, 20 ug/ml BSA, on ice, gel at 4 C; NMR: 50 mM NaHPO4 pH 6.5, 100 mM NaCl, 8% D2O, 298 K. The settings on record: protein: recombinant, tags: N-terminal His, (radiolabeled) in EMSA, bubble: 10 bp stem, 10 unpaired nt.

The target in data set [5] is T1, FAAP24 HhH domain. Put plainly: EMSA; 10 mM NaCl; apparent Kd, multiple complexes; EMSA: 10 mM Tris pH 7.0, 10 mM NaCl (high salt: 50 mM NaHPO4, 400 mM NaCl), 5% glycerol, 1 mM DTT, 20 ug/ml BSA, on ice, gel at 4 C; NMR: 50 mM NaHPO4 pH 6.5, 100 mM NaCl, 8% D2O, 298 K. The settings on record: protein: recombinant, tags: N-terminal His, (radiolabeled) in EMSA, bubble: 10 bp stem, 10 unpaired nt.

The next data set has as its target T3, FAAP24 HhH K173A (UniProt Q9BTP7 139-215, K173A).
T3 sequence: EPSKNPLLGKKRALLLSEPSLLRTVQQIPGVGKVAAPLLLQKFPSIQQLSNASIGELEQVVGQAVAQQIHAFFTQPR
The experiment in a line: EMSA; EMSA: 10 mM Tris pH 7.0, 10 mM NaCl (high salt: 50 mM NaHPO4, 400 mM NaCl), 5% glycerol, 1 mM DTT, 20 ug/ml BSA, on ice, gel at 4 C; NMR: 50 mM NaHPO4 pH 6.5, 100 mM NaCl, 8% D2O, 298 K. The settings on record: protein: recombinant, tags: N-terminal His, (radiolabeled) in EMSA, bubble: 10 bp stem, 10 unpaired nt.

In a further data set the target is T4, FAAP24 HhH R161A (UniProt Q9BTP7 139-215, R161A).
T4 sequence: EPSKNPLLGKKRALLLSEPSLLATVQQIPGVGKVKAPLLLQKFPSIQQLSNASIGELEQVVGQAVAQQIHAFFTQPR
The description is as above. The following applies: protein: recombinant, tags: N-terminal His, (radiolabeled) in EMSA, bubble: 10 bp stem, 10 unpaired nt.

Another data set addresses T5, FAAP24 HhH K171A/K173A (UniProt Q9BTP7 139-215, K171A;K173A).
T5 sequence: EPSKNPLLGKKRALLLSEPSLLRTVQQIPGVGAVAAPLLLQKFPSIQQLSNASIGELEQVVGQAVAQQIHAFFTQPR
The description is as above. The settings on record: protein: recombinant, tags: N-terminal His, (radiolabeled) in EMSA, bubble: 10 bp stem, 10 unpaired nt.

Data set [6] deals with T1, FAAP24 HhH domain. The experiment in a line: NMR; 100 mM NaCl; CSPs in hairpin 1; EMSA: 10 mM Tris pH 7.0, 10 mM NaCl (high salt: 50 mM NaHPO4, 400 mM NaCl), 5% glycerol, 1 mM DTT, 20 ug/ml BSA, on ice, gel at 4 C; NMR: 50 mM NaHPO4 pH 6.5, 100 mM NaCl, 8% D2O, 298 K. The settings on record: protein: recombinant; tags: N-terminal His; blunt.
The next data set deals with T6, FAAP24 full length (UniProt Q9BTP7 1-215).
T6 sequence: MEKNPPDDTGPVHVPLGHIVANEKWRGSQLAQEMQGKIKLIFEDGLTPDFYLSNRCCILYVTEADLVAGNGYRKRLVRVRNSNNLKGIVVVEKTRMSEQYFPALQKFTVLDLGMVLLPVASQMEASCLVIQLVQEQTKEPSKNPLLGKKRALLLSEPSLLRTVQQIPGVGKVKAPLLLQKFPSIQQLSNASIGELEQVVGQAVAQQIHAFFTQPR
Put plainly: NMR; CSPs in hairpin 1, C-terminus and ERCC4-like domain; EMSA: 10 mM Tris pH 7.0, 10 mM NaCl (high salt: 50 mM NaHPO4, 400 mM NaCl), 5% glycerol, 1 mM DTT, 20 ug/ml BSA, on ice, gel at 4 C; NMR: 50 mM NaHPO4 pH 6.5, 100 mM NaCl, 8% D2O, 298 K. The following applies: protein: recombinant; tags: N-terminal His; blunt.

Take “GGGCGGCGGGTTTTTTTTTTGGCGGGGCGG / CCGCCCCGCCTTTTTTTTTTCCCGCCGCCC [B10 bubble]”: the binding signal (fold decrease in affinity vs wt) in the data set with FAAP24 HhH V162A V162A came out at 2.

B1: ds30 (dsDNA)
DNA 1: GGGCGGCGGGTTTTTTTTTTGGCGGGGCGG
DNA 2: CCGCCCCGCCAAAAAAAAAACCCGCCGCCC
As to B1, in the data set with FAAP24 HhH domain [1] (blunt), the Kd is 9.1 ± 0.9 µM.

Regarding TGCGAATTCATATGCAATATTCAGTGGCTGAGCTACTGG (ssDNA) [ss39], the Kd with FAAP24 HhH domain [1] (single strand) stood at 7.8 ± 0.4 µM.

B2: splayed arm with 20 nt arms (mixed)
DNA 1: GGGCGGCGGGCGGATAGATTGAAATCTTAG
DNA 2: GATTCTAAAGTTAGATAGGCCCCGCCGCCC
For the molecule B2, the binding result in the data set with FAAP24 HhH domain [2] was “binds”.

As for TTTTTTTTTTTTTTTTTTTT (ssDNA) [ss20 (dT20)], in the data set with FAAP24 HhH domain [3], the binding result was “binds”.

B3: 5' extension (mixed)
DNA: GATTCTAAAGTTAGATAGGCCCCGCCGCCC
?: GGGCGGCGGG
Regarding B3, in the data set with FAAP24 HhH domain [4], the binding result is reported as “binds”.

B4: B10 bubble (mixed)
DNA 1: GGGCGGCGGGTTTTTTTTTTGGCGGGGCGG
DNA 2: CCGCCCCGCCTTTTTTTTTTCCCGCCGCCC
Regarding B4, the binding result with FAAP24 HhH Q205A/Q206A is “binds”. In addition, the Kd in the data set with FAAP24 HhH domain [5] was 1.2 ± 0.2 µM. For the same molecule, the binding signal with FAAP24 HhH K173A was 3 fold decrease in affinity vs wt; with FAAP24 HhH R161A, 2 fold decrease in affinity vs wt; with FAAP24 HhH K171A/K173A, 4 fold decrease in affinity vs wt.

B5: ds10 (dsDNA)
DNA 1: GGGCGGCGGG
DNA 2: CCCGCCGCCC
Turning to B5, the binding result in the data set with FAAP24 HhH domain [6] and with FAAP24 full length was “binds” each time.

(Values after paper PMC3711432, “The Fanconi anemia associated protein FAAP24 uses two substrate specific binding surfaces for DNA recognition”.)
